From patent US20110129476A1 (MAX PLANCK GESELLSCHAFT ZUR FORDERUNG DER WISSENSCHAFTEN E V, published 2011)

Tests used:
[1] = target: T1, ERp44, endogenous protein of murine K46 B cells (mouse, UniProt Q9D1Q6 30-406); experiment: formaldehyde crosslinking, α-MZB1 immunoprecipitation and mass spectrometry; co-immunoprecipitation of endogenous proteins from K46 extracts
T1 sequence (looked up): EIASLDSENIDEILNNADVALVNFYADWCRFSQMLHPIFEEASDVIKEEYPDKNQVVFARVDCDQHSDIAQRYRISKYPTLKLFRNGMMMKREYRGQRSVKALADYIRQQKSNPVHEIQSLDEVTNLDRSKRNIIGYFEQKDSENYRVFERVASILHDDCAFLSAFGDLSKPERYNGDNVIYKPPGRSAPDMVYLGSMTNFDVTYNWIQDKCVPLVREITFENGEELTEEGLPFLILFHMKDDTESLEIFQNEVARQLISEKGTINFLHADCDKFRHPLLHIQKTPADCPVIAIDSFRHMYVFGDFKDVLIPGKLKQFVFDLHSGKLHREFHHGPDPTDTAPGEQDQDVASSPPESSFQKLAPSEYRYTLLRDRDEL
Protocol: (§1) Approximately […] of K46 mature B cells were cultured until reaching the exponential growth phase, harvested and in vivo formaldehyde crosslinking was performed by adding 1% formaldehyde (final concentration) directly to the K46 cell culture. Cells were incubated for 10 min at 37° C. and 5% CO₂ and the crosslinking reaction was quenched by addition of 2.5M glycine with a final concentration of 125 mM. After crosslinking, cells were collected, washed with ice-cold PBS and frozen at −80° C. prior to lysis. […] The immunoprecipitated proteins were eluted with sample buffer and separated on a 4%-12% gradient SDS-PAGE. The gel was silver stained. The marked bands (arrow) were cut out and prepared for mass spectrometry analysis.

[2] = target: T2, ERp57, endogenous protein of murine K46 B cells (mouse, UniProt P27773 25-505); experiment: as above
T2 sequence (looked up): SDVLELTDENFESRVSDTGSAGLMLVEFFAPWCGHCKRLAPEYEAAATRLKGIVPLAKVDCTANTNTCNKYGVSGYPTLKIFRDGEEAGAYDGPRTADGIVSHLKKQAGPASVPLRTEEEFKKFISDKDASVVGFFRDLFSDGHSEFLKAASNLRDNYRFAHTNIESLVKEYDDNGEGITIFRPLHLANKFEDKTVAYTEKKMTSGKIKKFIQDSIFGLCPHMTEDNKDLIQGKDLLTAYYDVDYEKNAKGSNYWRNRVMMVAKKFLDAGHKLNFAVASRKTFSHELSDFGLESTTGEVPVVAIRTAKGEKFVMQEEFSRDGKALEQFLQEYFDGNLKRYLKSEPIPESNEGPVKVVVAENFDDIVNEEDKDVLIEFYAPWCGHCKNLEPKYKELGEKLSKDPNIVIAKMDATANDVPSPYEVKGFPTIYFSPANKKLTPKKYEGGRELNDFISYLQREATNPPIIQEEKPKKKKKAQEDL
Protocol: as §1

[3] = target: GRP94 (Endoplasmin), endogenous protein of murine K46 B cells (mouse, UniProt P08113 22-802); experiment: as above
Protocol: as §1

[4] = target: RACK1 (receptor for activated C kinase 1), endogenous protein of murine K46 B cells (mouse, UniProt P68040 1-317); experiment: reciprocal co-immunoprecipitation (α-RACK1; α-MZB1 5C11 Sepharose) from membrane and cytosolic fractions of K46 B cells, immunoblot

Chain of GRP94 (Endoplasmin), endogenous protein of murine K46 B cells (P08113 22-802 limits assumed): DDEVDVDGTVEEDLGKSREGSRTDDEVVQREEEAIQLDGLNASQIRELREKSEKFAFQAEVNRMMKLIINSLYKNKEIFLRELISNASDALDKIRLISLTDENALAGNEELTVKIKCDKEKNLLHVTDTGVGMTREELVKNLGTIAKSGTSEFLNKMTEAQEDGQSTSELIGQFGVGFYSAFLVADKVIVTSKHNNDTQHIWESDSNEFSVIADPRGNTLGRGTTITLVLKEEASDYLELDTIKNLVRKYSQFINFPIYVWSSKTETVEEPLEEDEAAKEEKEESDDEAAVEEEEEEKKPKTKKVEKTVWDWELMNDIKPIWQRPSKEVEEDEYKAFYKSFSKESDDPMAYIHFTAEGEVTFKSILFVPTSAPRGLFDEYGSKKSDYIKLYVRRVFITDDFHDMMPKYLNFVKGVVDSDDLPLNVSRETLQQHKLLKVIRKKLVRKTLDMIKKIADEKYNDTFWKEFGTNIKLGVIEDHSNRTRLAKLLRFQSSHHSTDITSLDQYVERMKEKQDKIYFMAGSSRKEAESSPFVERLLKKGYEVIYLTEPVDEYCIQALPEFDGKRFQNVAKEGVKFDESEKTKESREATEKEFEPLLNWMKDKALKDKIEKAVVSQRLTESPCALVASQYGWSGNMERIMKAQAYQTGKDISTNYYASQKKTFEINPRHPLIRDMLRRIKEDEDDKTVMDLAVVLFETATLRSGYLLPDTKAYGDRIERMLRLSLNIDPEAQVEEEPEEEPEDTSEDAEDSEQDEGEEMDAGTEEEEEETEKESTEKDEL

binding result [1]: binds | binding result [2]: binds | binding result [3]: binds | binding result [4]: binds
B1: MZB1 (marginal zone B1 B cell factor 1), endogenous protein of murine K46 mature B cells (other)
chain: GDRVSLSASAPTLDDEEKYSAHMPAHLRCDACRAVAFQMGQRLAKAEAKSHTPDASGLQELSESTYTDVLDQTCSQNWQSYGVHEVNQMKRLTGPGLSKGPEPRISVMISGGPWPNRLSKTCFHYLGEFGEDQIYEAYRQGQANLEALLCGGTHGPCSQEILAQREEL
notes: Endogenous protein in K46 cell extracts (whole cell, membrane or cytosolic fraction); also called AL1
